Measured values reported in article PMC9555226, “Microreactor equipped with naturally acid-resistant histidine ammonia lyase from an extremophile” (Materials advances, 2022).

Substrate: N[C@@H](Cc1c[nH]cn1)C(=O)O
Experiment: purified protein
Assay type: biochemical, Thermoplasma acidophilum
Settings: 37 °C, pH 7.4, buffer A, free enzyme

B1: TaHAL (Thermoplasma acidophilum histidine ammonia lyase) (Thermoplasma acidophilum DSM 1728) (protein)
chain: MIEIDGRSLRVEDVYAVAVEYDRVSISDDTLKAVEEKHEAFLKLINSGKTVYGVNTGFGSLLNVHIERDQEIELQKNLIRSHSSGVGDYLENRYVRAIMAVRLNSLAAGYSAVSADLLNMMVEMLNRDVIPAVPKYGSVGASGDLAPLAHIGLAMMGEGKAFFEGRLMDSARALEKAGLKPYQFKEKEGVALINGTSFMSGILSIAVMDAHDILENAIRSALLSFEALGGTSKAFTPWILGARPHLGQVAIGNRFREYLTGSDIVKRADSVKVQDAYTLRCIPQVYGSVADVIDYVENVLSVEINSATDNPLFNGEEVVSGGNFHGEPVALAADFLAIALTDLGNMVERRIARLVDTNLSGLPPFLTPDSGLNSGYMIPQYTAAALCNRNKVLAYPSSADTIPTSANQEDHVSMGATGSLKLLEIIDNVRYIIAIEYLLGSQALEFTDKGMSPSTRKIYEKIREKVEKLDHDRPPSFDIETIRKMMDKKEFISALP
notes: E. coli BL21(DE3), codon-optimized gene, pET28a; N-terminal His-SUMO tag cleaved with ULP1; ~55 kDa; homotetramer with MIO
Protein B1 has a Km of 45 ± 20 µM, a kcat of 1.01 ± 0.08 s⁻¹ and a kcat/Km of 22400 ± 4000 M⁻¹ s⁻¹.
